Results taken from article PMC11169542, “A probe for NIR-II imaging and multimodal analysis of early Alzheimer’s disease by targeting CTGF” (Nature Communications, 2024).
“And” between values parts separate entries of the source, which are not always exact repeats. Equal entries are not always repeated. Ends that are not written are not given here.

Columns and labels:
[1] = Pharmacokinetic study of DGC in C57BL/6J mice (serum Au by ICP-MS); type: in vivo; conditions: for AUC(0-t) (AUClast) / AUC(0-∞) (AUCINF_obs) / AµMC(0-t) (AUMClast) / AµMC(0-∞) (AUMCINF_obs) / Cmax / MRT(0-t) (MRTlast) / MRT(0-∞) (MRTINF_obs) / Vz/F (Vz_obs) / elimination half-life t1/2z (HL_Lambda_z) / CLz/F (Cl_obs) / Tmax: 20 mg/kg i.v. single dose, n=3; for AUC(0-t) (AUClast) / AUC(0-∞) (AUCINF_obs) / AµMC(0-t) (AUMClast) / AµMC(0-∞) (AUMCINF_obs) / Cmax / MRT(0-t) (MRTlast) / MRT(0-∞) (MRTINF_obs) / Vz/F (Vz_obs) / elimination half-life t1/2z (HL_Lambda_z) / CLz/F (Cl_obs) / Tmax / Clast / C0 / Cmax_D / Lambda_z: serum Au by ICP-MS; for AUC(0-t) (AUClast) / AUC(0-∞) (AUCINF_obs) / AµMC(0-t) (AUMClast) / AµMC(0-∞) (AUMCINF_obs) / Cmax / MRT(0-t) (MRTlast) / MRT(0-∞) (MRTINF_obs) / Vz/F (Vz_obs) / elimination half-life t1/2z (HL_Lambda_z) / CLz/F (Cl_obs) / Tmax / Clast_pred / AUCINF_D_obs / AUCINF_D_pred / AUCINF_pred / AUCall / AUClast_D / AUMCINF_pred / Cl_pred / MRTINF_pred / Vss_obs / Vss_pred / Vz_pred / C0 / Cmax_D / Lambda_z: WinNonlin; for CLz/F (Cl_obs) / Tmax: 20 mg/kg; for Clast_pred / Clast / AUCINF_D_obs / AUCINF_D_pred / AUCINF_pred / AUCall / AUClast_D / AUMCINF_pred / Cl_pred / MRTINF_pred / Vss_obs / Vss_pred / Vz_pred / C0 / Cmax_D / Lambda_z: 20 mg/kg i.v.; for Clast_pred / Clast: Tlast 48 h
Experimental: Male and female mice were given a single intravenous dose of 20 mg/ kg (n = 3). The blood of posterior orbital venous plexus was collected at continuous time points (0.083, 0.25, 0.5, 1, 2, 4, 8, 10, 12, 24, and 48 h) and the serum was rapid separation by centrifugation (1200×g at 4 °C, 10 min). Au content in the serum sample was detected by ICP-MS. The pharmacokinetic index was obtained by using winnonlin8.4 […] model.

[2] = Effect of DGC on hematology of mice; type: in vivo, C57BL/6J mice; conditions: for Mean hemoglobin content of red blood cells (MCH): in pg (unit assumed)
From the text: In order to clarify the NIR-II signal in AD brains when in vivo imaging is arisen from the DGC probe that bound to CTGF, we selected 3-month-old APP/PS1 mice representing early-stage AD and the age-matched WT mice as control to performed ex vivo multimodal analysis of the brain sections. […] To exclude the influence of vascular retention, we emptied the cerebral vessels by cardiac perfusion and performed ex vivo imaging of the brains. […] For brain sections made from AD mice after tail vein injection of DGC, the red fluorescence observation and LA-ICP-TOF-MS of DGC, as well as a POD-like catalysis test were performed. […] In Fig. 6c, the colocalization of DGC (red fluorescence) and CTGF (green fluorescence) on the ex vivo brain sections confirmed the specificity of DGC targeting CTGF in vivo. To further identify the cellular target of DGC in the brain of APP/PS1 mice, we carried out immunofluorescence staining on the ex vivo brain sections after tail vein injection of DGC where cell-specific fluorescent antibodies for microglia (Iba 1), neurons (NeuN), vascular endothelial cell (CD31) and reactive astrocytes (GFAP) were applied. In Fig. 6d, […] co-localizes with GFAP-positive active astrocytes and CD31-positive microvessels, but not with neurons or microglia. […] The biosafety of DGC in C57BL/6J mice under the NIR-II imaging condition was evaluated by blood tests (blood cells and biochemical analysis) and organ pathological analysis (H&E staining).

[3] = Dynamic light scattering, hydrated particle size; type: physicochemical; conditions: dynamic light scattering (Zetasizer Nano), aqueous
From the text: The fluorescence spectrophotometer (Shimadzu RF-5301, Kyoto, Japan) and NIR spectrograph FLS1000 was used to acquire the fluorescence and NIR spectra of the as-synthesized DGC. The mean hydrated particle size and size distribution of DGC were further documented by a phase analysis light-scattering technique (Zetasizer Nano, Malvern). The synthetic DGC was also observed by using a High-Resolution Transmission Electron Microscope (HRTEM, FEI Talos F200X-G2) at the accelerated voltage of 200 kV.

CTX TNA2 cells = assay: Cytotoxicity of DGC (CCK-8); type: cell-based; design: key: viability relative to control cells (control = 1); conditions: 200 μM (Au content), 24 h, CCK-8, normalized to control
[4] = DGC group, mean of 3 mice, in 10^9/L (unit assumed)
[5] = DGC group, mean of 3 mice, in % (unit assumed)
[6] = DGC group, mean of 3 mice, in fL (unit assumed)
[7] = DGC group, mice 1, in fL (unit assumed)
[8] = DGC group, mice 2, in fL (unit assumed)
[9] = DGC group, mice 3, in fL (unit assumed)

Substance: DGC: CTGF-targeting peptide-coated gold nanocluster: one Au26 gold nanocluster coated by eight DAG cyclic peptides, NIR-II and red fluorescence (CDAGRKQKC; also: cyclic peptide, ring not given here, eight peptides on one Au26 nanocluster via Cys Au-S bonds)
- AUC(0-t) (AUClast) ([1]; female C57BL/6J mice): 650.995 µg·h/mL
- AUC(0-∞) (AUCINF_obs) ([1]; female C57BL/6J mice): 779.367 µg·h/mL
- AµMC(0-t) (AUMClast) ([1]; female C57BL/6J mice): 10136.5 h*h*mg/L
- AµMC(0-∞) (AUMCINF_obs) ([1]; female C57BL/6J mice): 19964.5 h*h*mg/L
- Cmax ([1]; female C57BL/6J mice): 191.26 µg/mL
- MRT(0-t) (MRTlast) ([1]; female C57BL/6J mice): 15.5708 h
- MRT(0-∞) (MRTINF_obs) ([1]; female C57BL/6J mice): 25.6162 h
- Vz/F (Vz_obs) ([1]; female C57BL/6J mice): 0.7329 L/kg
- elimination half-life t1/2z (HL_Lambda_z) ([1]; female C57BL/6J mice): 19.7951 h
- CLz/F (Cl_obs) ([1]; female C57BL/6J mice): 0.5 mL/min/kg and 0.4277 mL/min/kg
- Tmax ([1]; female C57BL/6J mice): 4.8 min and 4.98 min
- Clast_pred ([1]; female C57BL/6J mice): 4.584 µg/mL
- Clast ([1]; female C57BL/6J mice): 4.495 µg/mL
- AUCINF_D_obs ([1]; female C57BL/6J mice): 38.9684 kg·mg·h/L/mg
- AUCINF_D_pred ([1]; female C57BL/6J mice): 39.095 kg·mg·h/L/mg
- AUCINF_pred ([1]; female C57BL/6J mice): 781.9 µg·h/mL
- AUCall ([1]; female C57BL/6J mice): 650.995 µg·h/mL
- AUClast_D ([1]; female C57BL/6J mice): 32.5498 kg·mg·h/L/mg
- AUMCINF_pred ([1]; female C57BL/6J mice): 20158.4 h*h*mg/L
- Cl_pred ([1]; female C57BL/6J mice): 0.4263 mL/min/kg
- MRTINF_pred ([1]; female C57BL/6J mice): 25.7813 h
- Vss_obs ([1]; female C57BL/6J mice): 0.6574 L/kg
- Vss_pred ([1]; female C57BL/6J mice): 0.6595 L/kg
- Vz_pred ([1]; female C57BL/6J mice): 0.7305 L/kg
- C0 ([1]; female C57BL/6J mice): 267.189 µg/mL
- Cmax_D ([1]; female C57BL/6J mice): 9.563 kg·mg/L/mg
- Lambda_z ([1]; female C57BL/6J mice): 0.03502 h⁻¹
- elimination half-life (t1/2z) ([1]; in mice, sex not specified): about 20 h
- AUC(0-t) (AUClast) ([1]; male C57BL/6J mice): 615.219 µg·h/mL
- AUC(0-∞) (AUCINF_obs) ([1]; male C57BL/6J mice): 735.649 µg·h/mL
- AµMC(0-t) (AUMClast) ([1]; male C57BL/6J mice): 8803.77 h*h*mg/L
- AµMC(0-∞) (AUMCINF_obs) ([1]; male C57BL/6J mice): 18299.4 h*h*mg/L
- Cmax ([1]; male C57BL/6J mice): 172.688 µg/mL
- MRT(0-t) (MRTlast) ([1]; male C57BL/6J mice): 14.31 h
- MRT(0-∞) (MRTINF_obs) ([1]; male C57BL/6J mice): 24.8751 h
- Vz/F (Vz_obs) ([1]; male C57BL/6J mice): 0.8386 L/kg
- elimination half-life t1/2z (HL_Lambda_z) ([1]; male C57BL/6J mice): 21.3817 h
- CLz/F (Cl_obs) ([1]; male C57BL/6J mice): 0.5 mL/min/kg and 0.4532 mL/min/kg
- Tmax ([1]; male C57BL/6J mice): 4.8 min and 4.98 min
- Clast_pred ([1]; male C57BL/6J mice): 3.998 µg/mL
- Clast ([1]; male C57BL/6J mice): 3.904 µg/mL
- AUCINF_D_obs ([1]; male C57BL/6J mice): 36.7825 kg·mg·h/L/mg
- AUCINF_D_pred ([1]; male C57BL/6J mice): 36.9275 kg·mg·h/L/mg
- AUCINF_pred ([1]; male C57BL/6J mice): 738.551 µg·h/mL
- AUCall ([1]; male C57BL/6J mice): 615.219 µg·h/mL
- AUClast_D ([1]; male C57BL/6J mice): 30.7609 kg·mg·h/L/mg
- AUMCINF_pred ([1]; male C57BL/6J mice): 18528.2 h*h*mg/L
- Cl_pred ([1]; male C57BL/6J mice): 0.4513 mL/min/kg
- MRTINF_pred ([1]; male C57BL/6J mice): 25.0872 h
- Vss_obs ([1]; male C57BL/6J mice): 0.6763 L/kg
- Vss_pred ([1]; male C57BL/6J mice): 0.6794 L/kg
- Vz_pred ([1]; male C57BL/6J mice): 0.8353 L/kg
- C0 ([1]; male C57BL/6J mice): 204.126 µg/mL
- Cmax_D ([1]; male C57BL/6J mice): 8.634 kg·mg/L/mg
- Lambda_z ([1]; male C57BL/6J mice): 0.03242 h⁻¹
- Basophil granulocyte count (Bas#) ([2]; C57BL/6J mice, 20 mg/kg DGC, n = 3, normal range 0.00 - 0.12): 0.02 ± 0.01 109/L
- Eosinophil granulocyte count (Eos#) ([2]; C57BL/6J mice, 20 mg/kg DGC, n = 3, normal range 0.00 - 0.51): 0.04 ± 0.02 109/L
- Percentage of Basophil granulocyte (Bas%) ([2]; C57BL/6J mice, 20 mg/kg DGC, n = 3, normal range 0.0 - 1.5): 0.27 ± 0.06%
- Percentage of eosinophil granulocyte (Eos%) ([2]; C57BL/6J mice, 20 mg/kg DGC, n = 3, normal range 0.0 - 7.5): 0.47 ± 0.23%
- Monocytes count (Mon#) ([2]; C57BL/6J mice, 20 mg/kg DGC, n = 3, normal range 0.04 - 1.40): 0.25 ± 0.1 109/L
- Percentage of monocytes (Mon%) ([2]; C57BL/6J mice, 20 mg/kg DGC, n = 3, normal range 0.9 - 18.0): 3.07 ± 0.84%
- Percentage of neutrophil (Neu%) ([2]; C57BL/6J mice, 20 mg/kg DGC, n = 3, normal range 6.5 - 50.0): 13.2 ± 1.31%
- Percentage of lymphocyte (Lym%) ([2]; C57BL/6J mice, 20 mg/kg DGC, n = 3, normal range 40.0 - 92.0): 83 ± 2.08%
- Mean concentration of red blood cell hemoglobin (MCHC) ([2]; DGC group, mean of 3 mice): 315.67 ± 5.69
- Width of platelet distribution (PDW) ([2]; DGC group, mean of 3 mice): 15.23 ± 0.25
- Basophil granulocyte count (Bas#) [2, 4]: 0.02 ± 0.01
- Eosinophil granulocyte count (Eos#) [2, 4]: 0.04 ± 0.02
- Lymphocyte count (Lym#) [2, 4]: 6.65 ± 0.78
- Monocytes count (Mon#) [2, 4]: 0.25 ± 0.1
- Neutrophil count (Neu#) [2, 4]: 1.07 ± 0.24
- Platelet count (PLT) [2, 4]: 1228.67 ± 179.01
- White blood cell count (WBC) [2, 4]: 8.03 ± 1.12
- Red blood cell count (RBC) ([2]; DGC group, mean of 3 mice, in 10^12/L (unit assumed)): 10.16 ± 0.42
- Coefficient of variation of red blood cell distribution width (RDW-CV) [2, 5]: 13.13 ± 1
- Hematocrit (HCT) [2, 5]: 51.2 ± 1.93
- Mean corpuscular volume (MCV) [2, 6]: 50.4 ± 0.17
- Mean platelet volume (MPV) [2, 6]: 5.53 ± 0.15
- Standard deviation of red blood cell distribution width (RDW-SD) [2, 6]: 27.8 ± 2.1
- Hemoglobin (HGB) ([2]; DGC group, mean of 3 mice, in g/L (unit assumed)): 161.67 ± 8.02
- Mean hemoglobin content of red blood cells (MCH) ([2]; DGC group, mean of 3 mice): 15.93 ± 0.25
- Mean concentration of red blood cell hemoglobin (MCHC) ([2]; DGC group, mice 1): 311
- Mean corpuscular volume (MCV) [2, 7]: 50.5
- Mean platelet volume (MPV) [2, 7]: 5.7
- Mean hemoglobin content of red blood cells (MCH) ([2]; DGC group, mice 1): 15.7
- Mean concentration of red blood cell hemoglobin (MCHC) ([2]; DGC group, mice 2): 322
- Mean corpuscular volume (MCV) [2, 8]: 50.2
- Mean platelet volume (MPV) [2, 8]: 5.4
- Mean hemoglobin content of red blood cells (MCH) ([2]; DGC group, mice 2): 16.2
- Mean concentration of red blood cell hemoglobin (MCHC) ([2]; DGC group, mice 3): 314
- Mean corpuscular volume (MCV) [2, 9]: 50.5
- Mean platelet volume (MPV) [2, 9]: 5.5
- Mean hemoglobin content of red blood cells (MCH) ([2]; DGC group, mice 3): 15.9
- average hydrated size [3]: ~ 2.85 nm
- Cell viability (CTX TNA2 cells; replicate 1): 1.4709
- Cell viability (CTX TNA2 cells; replicate 2): 1.567
- Cell viability (CTX TNA2 cells; replicate 3): 1.589
